From the supplement of paper PMC7125110
± gives the standard error. Variants at the floor of the assay were thinned out.

B1: glmS ribozyme (parent)
chain: AUAAAAGCGCCAGAACUACAGAAAUGUAGUUGACGAGGAGGAGGUUUAUCGAAUUUUCGGCGGAUGCCUCCAAA

Columns and labels:
Conditions in all cases: with glucosamine-6-phosphate
glucosamine-6-phosphate [1] = variants of: B1; test: self-cleavage kobs at 40 uM GlcN6P; higher = faster cleavage; RNA array
Procedure, shortened: (§1)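 Barcoded ribozyme variants were transcribed in situ on sequenced MiSeq chips by E. coli RNA polymerase. At 37 °C, a hybridised Cy3 probe tracked them while glucosamine-6-phosphate (40 μM to 10 mM) in HEPES/KCl/Mg(OAc)2 buffer flowed in and tiles were imaged over ~14 h. Per-tile medians of signals normalised to baseline and to non-cleaving reference variants were fit to one- or two-exponential decays, giving kobs. kcat and KM came from weighted Michaelis–Menten fits across concentrations.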

glucosamine-6-phosphate [2] = variants of: B1; test: self-cleavage kobs at 10000 uM GlcN6P; higher = faster cleavage; RNA array
Procedure, shortened: as §1

glucosamine-6-phosphate [3] = variants of: B1; test: self-cleavage kobs at 640 uM GlcN6P; higher = faster cleavage; RNA array
Procedure, shortened: as §1

glucosamine-6-phosphate [4] = variants of: B1; test: self-cleavage kobs at 160 uM GlcN6P; higher = faster cleavage; RNA array
Procedure, shortened: as §1

glucosamine-6-phosphate [5] = variants of: B1; test: self-cleavage kobs at 2500 uM GlcN6P; higher = faster cleavage; RNA array
Procedure, shortened: as §1

| Variant | self-cleavage kobs at 40 uM GlcN6P (glucosamine-6-phosphate [1]) [s⁻¹] | self-cleavage kobs at 10000 uM GlcN6P (glucosamine-6-phosphate [2]) [s⁻¹] | self-cleavage kobs at 640 uM GlcN6P (glucosamine-6-phosphate [3]) [s⁻¹] | self-cleavage kobs at 160 uM GlcN6P (glucosamine-6-phosphate [4]) [s⁻¹] | self-cleavage kobs at 2500 uM GlcN6P (glucosamine-6-phosphate [5]) [s⁻¹] |
| --- | --- | --- | --- | --- | --- |
| AUAAAAGCGCCAGAACUACAGAAAUGUAGUUUACGAGGAGGAGGUUUAUCGAAUUUUCGGCGGAUGUCUUCAAA | < 1e-05 |  |  |  |  |
| AUAAAAGCCCCAGAACUACAGAAAUGUAGUUGACGAGGAGGAGGUUUAUCGAAUUUUCGGCGACUGCCUGCAAA | < 1e-05 | < 1e-05 |  |  |  |
| AUAAAAGCGCCAGAACUACAGAAAUGUAGUUGACGAGGAGGAGGUUUAUCGUAUUUUAGGCGGAUGCCUCCAAA | < 1e-05 |  | < 1e-05 |  |  |
| AUAAAAGUGCCAGAACUACAGAAAUGUAGUUGACGAGGACGAGGUUUAUCGAAUUUUCGGCGGAUGCCUCCAAA | < 1e-05 | < 1e-05 | < 1e-05 |  |  |
| AUAAAAGCGGCAGAGCUACAGAAAUGUAGUUGACGAGGAGGAGGUUUAUCGAAUUUUCGGCGGGUGCCUCCAAA | < 1e-05 |  |  |  |  |
| AUAAAAGCGCCAGAACUACAGAAAUGUAGUCGACGACGAGGAGGUUUAUCGAAUUUUCGGCGGAUGCCUCCAAA | < 1e-05 |  |  | < 1e-05 |  |
| AUAAAAGCGCCAGAACUACAGAAAUGUAGUUGCCGAGGAGGAGGUUUAUCGAAUUUUCGGCGGAUGUCUCCAAA | < 1e-05 |  | < 1e-05 | < 1e-05 |  |
| AUAAAGGUGCCAGAACUACAGAAAUGUAGUUGACGAGGAGGAGGUUUAUCGAAUUUUCGGCGGAUGCCUCCAAA | < 1e-05 | < 1e-05 |  |  | < 1e-05 |
| AUAAAACCGACAGAACUACAGAAAUGUAGUUGACGAGGAGGAGGUUUAUCGAAUUUUCGGCGGAUGCCUCCAAA | < 1e-05 | < 1e-05 |  |  | < 1e-05 |
| AUAAAAGCGCCAGAACUACAGAAAUGUAGUUGCCGAGGAGGAGCUUUAUCGAAUUUUCGGCGGAUGCCUCCAAA | < 1e-05 | < 1e-05 | < 1e-05 | < 1e-05 | < 1e-05 |
| AUAAAAGCGCCAGAACUACAGAAAUGUAGUUGACGAGGAGGAGUUUUAUCGAAUUUUCGGCGGUUGCCUCCAAA | < 1e-05 | < 1e-05 | < 1e-05 | < 1e-05 | < 1e-05 |
| AUAAAAGCGCCAGAACUACAGAAAUAUAGUUGACGAGGAGGAGGUUUAUCGAAUUUUCGGCGGAUGUCUCCAAA | 0.000613 ± 0.00023 |  |  |  |  |
| AUAAAAGCGCCAGAACUACAGAAAUGUAAUUGACGAGGAGGAGGUUUAUCGAAUUCUCAGCGGAUGCCUCAAAA | < 1e-05 | < 1e-05 |  |  |  |
| AUAAAAGCGCCAGAACUACAGAAAUGUAGUUGACGAGGAGGAGGUUUACCGAAUUUACGGCGGAUGCCUCCAAA | < 1e-05 |  |  |  |  |
| AUAAAAGCGGCAGAACUACAGAAAUGUAGUUGACGAUGACUAGGUUUAUGGAAUUUUCGGCGGAUGCCUCCAAA | < 1e-05 |  |  |  |  |
| AUAAAAUCGCCAGAACUACAGAAAUGUAGUUGACGAGGACGACGUUUAUCGAAUUUUCGGCGGAUGCCUCCAAA | < 1e-05 | < 1e-05 |  |  |  |
